Values of other authors, collected in article PMC8693730.
pKd: −log10 of the molar value. Read-outs that look alike come from different tables or passages of the source.

Tests used:
RAP74 (Homo sapiens) [1] = target: RAP74 (Homo sapiens) (UniProt P35269)
RAP74 (Homo sapiens) [2] = target: RAP74 (Homo sapiens) (UniProt P35269); remark: listed apart in the source

UniProt P35269, sequence (P35269 2-517): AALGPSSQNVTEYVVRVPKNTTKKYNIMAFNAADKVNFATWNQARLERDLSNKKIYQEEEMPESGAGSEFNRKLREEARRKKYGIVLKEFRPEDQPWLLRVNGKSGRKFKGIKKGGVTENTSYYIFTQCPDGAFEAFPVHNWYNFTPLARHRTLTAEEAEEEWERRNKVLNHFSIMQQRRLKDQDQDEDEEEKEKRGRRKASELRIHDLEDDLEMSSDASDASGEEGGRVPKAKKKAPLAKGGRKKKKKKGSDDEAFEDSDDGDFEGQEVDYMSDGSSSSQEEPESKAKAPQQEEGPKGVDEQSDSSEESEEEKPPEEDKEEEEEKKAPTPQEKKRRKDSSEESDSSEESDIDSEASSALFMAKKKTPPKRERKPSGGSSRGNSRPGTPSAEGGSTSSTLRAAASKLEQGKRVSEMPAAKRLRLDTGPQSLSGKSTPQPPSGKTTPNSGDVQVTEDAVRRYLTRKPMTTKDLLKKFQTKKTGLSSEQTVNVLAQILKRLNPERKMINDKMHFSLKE

- pKd (RAP74 (Homo sapiens) [1]): 3.15
- pKd (RAP74 (Homo sapiens) [2]): 2.76
Substance: androgen receptor NTD (from UniProt P10275)
